According to US20140120095A1 (Boehringer Ingelheim, published 2014):

Columns and labels:
[1] = target: T1, recombinant human DLL4 (C-terminally His-tagged extracellular domain, R&D Systems) (human, UniProt Q9NR61 25-522, biotinylated in the competition ELISA); assay: SPR (Biacore), rhDLL4
T1 construct: also called rhDLL4; hDLL4
Protocol: Kinetic analysis to determine the affinity of the DII4-VHH interaction is performed by Surface Plasmon Resonance (SPR) on a Biacore T100 instrument. […] Purified VHHs or Fab fragment are injected for 2 minutes at different concentrations (between 10 and 300 nM) and allowed to dissociate for 20 min at a flow rate of 45 μl/min. Between sample injections, the surfaces are regenerated with 10 mM glycine pH1.5 and 100 mM HCl. HBS-N (Hepes buffer pH7.4) is used as running buffer. If possible, data are evaluated by fitting a 1:1 interaction model (Langmuir binding) onto the binding curves. The affinity constant KD is calculated from resulting association and dissociation rate constants (kₐ) and […].

[2] = target: T2, recombinant mouse DLL4 (C-terminally His-tagged extracellular domain, R&D Systems) (mouse, UniProt Q9JI71 27-532); assay: SPR (Biacore), rmDLL4
T2 construct: extracellular domain; also called rmDLL4; mDLL4

[3] = target: T3, human DLL4 expressed on cells (CHO-hDLL4; HEK293-hDLL4) (human, UniProt Q9NR61 27-685); assay: cell-based or functional assay
[4] = target: T4, cynomolgus DLL4 expressed on CHO cells (cynomolgus, UniProt Q9NR61 27-685 (human entry)); assay: FACS on CHO-cDLL4 cells
T4 construct: also called cDLL4; CHO-cDLL4
T4 chain: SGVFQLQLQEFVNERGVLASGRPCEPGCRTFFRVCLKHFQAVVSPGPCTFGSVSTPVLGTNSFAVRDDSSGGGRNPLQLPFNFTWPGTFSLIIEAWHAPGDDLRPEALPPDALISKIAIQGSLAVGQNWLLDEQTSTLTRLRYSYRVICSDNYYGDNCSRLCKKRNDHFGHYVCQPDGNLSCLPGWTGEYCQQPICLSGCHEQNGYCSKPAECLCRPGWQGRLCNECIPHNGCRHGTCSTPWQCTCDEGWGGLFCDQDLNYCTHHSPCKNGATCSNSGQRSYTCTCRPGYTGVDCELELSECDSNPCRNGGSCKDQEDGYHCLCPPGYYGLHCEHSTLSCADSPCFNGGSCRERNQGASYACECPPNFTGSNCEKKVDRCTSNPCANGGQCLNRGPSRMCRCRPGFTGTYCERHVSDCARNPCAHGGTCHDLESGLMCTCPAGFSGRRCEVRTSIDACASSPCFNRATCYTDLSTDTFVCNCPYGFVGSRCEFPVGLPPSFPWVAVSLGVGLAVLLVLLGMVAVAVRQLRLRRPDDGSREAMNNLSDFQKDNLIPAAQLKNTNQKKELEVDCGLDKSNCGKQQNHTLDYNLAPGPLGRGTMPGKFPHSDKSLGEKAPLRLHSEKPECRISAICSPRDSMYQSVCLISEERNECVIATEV

[5] = target: T3, human DLL4 expressed on cells …; assay: FACS on CHO-hDLL4 cells
[6] = target: T1, recombinant human DLL4 (C-terminally …); assay: SPR (Biacore); summary table
[7] = target: T2, recombinant mouse DLL4 (C-terminally …); assay: SPR (Biacore); summary table
[8] = target: T3, human DLL4 expressed on cells …; assay: competition FMAT CHO-hDLL4; summary table
[9] = target: T5, mouse DLL4 expressed on CHO cells (mouse, UniProt Q9JI71 27-686); assay: competition FMAT CHO-mDLL4; summary table
T5 construct: whole, on cells; also called mDLL4; CHO-mDLL4

[10] = target: T4, cynomolgus DLL4 expressed on CHO cells; assay: FACS; summary table, column taken as cDLL4
[11] = target: T3, human DLL4 expressed on cells …; assay: FACS; summary table, column taken as hDLL4
[12] = target: T1, recombinant human DLL4 (C-terminally …); assay: competition ELISA hDLL4/hNotch1-Fc; summary table
[13] = target: T3, human DLL4 expressed on cells …; assay: competition FMAT, labelled hNotch1-Fc on CHO-hDLL4 cells
[14] = target: T5, mouse DLL4 expressed on CHO cells; assay: competition FMAT, labelled hNotch1-Fc on CHO-mDLL4 cells
[15] = target: T1, recombinant human DLL4 (C-terminally …); assay: competition ELISA, biotinylated hDLL4 to coated hNotch1-Fc
[16] = target: T6, human DLL1 (Alexis) (human, UniProt O00548 18-545, limits assumed); assay: binding ELISA on coated human DLL1 (Example 5.8, Example 7), OD 450 nm
T6 construct: also called hDLL1
T6 sequence (looked up): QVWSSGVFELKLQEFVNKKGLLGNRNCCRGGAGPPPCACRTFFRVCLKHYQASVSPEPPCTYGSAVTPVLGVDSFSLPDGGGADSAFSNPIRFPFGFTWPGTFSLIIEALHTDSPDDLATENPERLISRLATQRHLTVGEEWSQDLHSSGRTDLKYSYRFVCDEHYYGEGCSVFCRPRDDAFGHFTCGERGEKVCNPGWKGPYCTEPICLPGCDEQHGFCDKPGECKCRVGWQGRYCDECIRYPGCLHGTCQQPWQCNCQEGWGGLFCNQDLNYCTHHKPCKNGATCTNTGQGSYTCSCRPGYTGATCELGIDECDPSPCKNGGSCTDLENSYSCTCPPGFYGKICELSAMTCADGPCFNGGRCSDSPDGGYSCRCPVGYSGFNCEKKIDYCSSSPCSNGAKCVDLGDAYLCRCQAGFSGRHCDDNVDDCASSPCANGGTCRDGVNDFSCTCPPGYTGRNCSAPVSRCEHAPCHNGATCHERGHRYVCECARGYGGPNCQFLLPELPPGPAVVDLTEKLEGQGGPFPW

[17] = target: T7, human Jagged-1 (Alexis) (human, UniProt P78504 34-1067, limits assumed); assay: binding ELISA on coated human Jagged-1 (Example 5.8, Example 7), OD 405 nm
T7 construct: also called hJag-1; hJAG1

[18] = target: T1, recombinant human DLL4 (C-terminally …); assay: binding ELISA on coated recombinant human DLL4 (Example 5.8, Example 7), OD 450 nm
[19] = target: T2, recombinant mouse DLL4 (C-terminally …); assay: binding ELISA on coated recombinant mouse DLL4 (Example 5.8, Example 7), OD 450 nm
[20] = target: T8, PIGF (UniProt P49763-2 21-149, limits assumed); assay: solid phase binding ELISA on coated PIGF (Example 12.8)
T8 construct: also called placenta growth factor
T8 sequence (looked up): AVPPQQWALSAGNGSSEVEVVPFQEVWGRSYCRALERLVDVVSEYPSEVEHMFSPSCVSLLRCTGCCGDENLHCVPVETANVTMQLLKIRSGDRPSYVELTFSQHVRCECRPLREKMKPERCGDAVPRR
Protocol: (§1) Binding to VEGFB, VEGFC, VEGFD and PIGF is assessed via a solid phase binding ELISA. […] Wells are blocked with a casein solution (1% in PBS). […] As positive controls serial dilutions of the appropriate receptors are taken along and detected with horseradish peroxidase (HRP)-conjugated goat anti-human IgG, Fc specific antibody (Jackson Immuno Research Laboratories Inc., West Grove, Pa., USA) and a subsequent enzymatic reaction in the presence of the substrate TMB (3,3′,5,5′-tetramentylbenzidine) (Pierce, Rockford, Ill., USA).

[21] = target: T9, VEGFD (UniProt O43915 93-201, limits assumed); assay: solid phase binding ELISA on coated VEGF D (Example 12.8)
T9 sequence (looked up): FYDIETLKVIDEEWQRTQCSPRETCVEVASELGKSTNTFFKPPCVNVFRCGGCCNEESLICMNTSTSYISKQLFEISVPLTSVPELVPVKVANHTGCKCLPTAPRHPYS
Protocol: as §1

[22] = target: T10, VEGFB (UniProt P49765-2 22-188, limits assumed); assay: binding ELISA on coated VEGFB (Example 12.8), OD 450 nm
T10 sequence (looked up): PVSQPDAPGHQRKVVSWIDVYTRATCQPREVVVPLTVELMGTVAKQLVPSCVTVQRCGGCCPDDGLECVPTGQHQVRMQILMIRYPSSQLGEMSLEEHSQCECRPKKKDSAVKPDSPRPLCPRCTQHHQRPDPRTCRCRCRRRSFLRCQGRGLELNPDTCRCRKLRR
Protocol: as §1

[23] = target: T11, VEGFC (UniProt P49767 103-227, limits assumed); assay: binding ELISA on coated VEGFC (Example 12.8), OD 450 nm
T11 sequence (looked up): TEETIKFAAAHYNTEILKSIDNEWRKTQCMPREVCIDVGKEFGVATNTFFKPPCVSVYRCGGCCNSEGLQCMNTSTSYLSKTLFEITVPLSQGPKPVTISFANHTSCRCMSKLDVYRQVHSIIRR
Protocol: as §1

T2 sequence (Q9JI71 27-532): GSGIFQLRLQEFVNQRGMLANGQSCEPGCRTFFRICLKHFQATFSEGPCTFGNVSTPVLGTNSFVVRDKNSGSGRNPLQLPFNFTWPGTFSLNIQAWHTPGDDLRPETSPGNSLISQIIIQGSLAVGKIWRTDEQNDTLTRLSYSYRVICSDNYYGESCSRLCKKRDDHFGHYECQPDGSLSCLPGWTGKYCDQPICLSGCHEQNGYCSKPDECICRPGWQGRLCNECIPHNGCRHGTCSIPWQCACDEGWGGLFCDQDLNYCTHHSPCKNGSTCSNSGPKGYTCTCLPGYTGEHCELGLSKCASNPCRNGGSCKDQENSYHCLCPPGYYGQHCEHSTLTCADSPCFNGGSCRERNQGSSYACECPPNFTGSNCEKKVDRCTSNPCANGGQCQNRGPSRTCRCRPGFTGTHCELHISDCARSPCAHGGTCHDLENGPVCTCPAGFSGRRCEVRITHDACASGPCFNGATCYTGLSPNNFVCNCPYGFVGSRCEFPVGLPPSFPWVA
T5 sequence (Q9JI71 27-686): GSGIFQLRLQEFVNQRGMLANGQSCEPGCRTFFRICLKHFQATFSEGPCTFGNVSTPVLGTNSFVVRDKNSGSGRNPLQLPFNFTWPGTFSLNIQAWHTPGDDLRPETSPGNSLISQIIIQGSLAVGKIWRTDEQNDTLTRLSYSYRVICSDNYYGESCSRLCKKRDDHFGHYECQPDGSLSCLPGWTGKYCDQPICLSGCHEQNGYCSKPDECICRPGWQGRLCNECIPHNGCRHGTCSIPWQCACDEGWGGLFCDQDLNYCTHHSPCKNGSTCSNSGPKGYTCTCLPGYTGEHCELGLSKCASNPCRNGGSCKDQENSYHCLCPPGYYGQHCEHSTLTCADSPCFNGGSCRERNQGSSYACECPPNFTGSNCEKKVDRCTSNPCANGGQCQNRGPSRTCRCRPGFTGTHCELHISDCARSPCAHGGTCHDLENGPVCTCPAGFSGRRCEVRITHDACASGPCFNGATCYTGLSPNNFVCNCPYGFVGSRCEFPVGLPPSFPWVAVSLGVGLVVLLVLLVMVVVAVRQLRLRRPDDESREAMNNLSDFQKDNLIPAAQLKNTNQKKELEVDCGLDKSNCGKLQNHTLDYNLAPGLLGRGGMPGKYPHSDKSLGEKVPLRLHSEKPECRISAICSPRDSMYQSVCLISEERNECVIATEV

B1: DLLBII115A05 (VHH, not shown: small tags and cut ends)
VHH: EVQLVESGGGLVQPGGSLRLSCAASGFTFGSYDMSWVRRSPGKGPEWVSSINSGGGSTYYADFVKGRFTISRDNAKNTLYLQMNSLKPEDTAVYYCAADRYIRARQGDYWGAYEYDYWGQGTQVTVSS
notes: parent VHH; also called 115A05 (wt); 115A5
Work on B1 yielded a Kd [1] of 16 nM, a koff [1] of 0.004 s⁻¹ and a kon [1] of 250000 M⁻¹ s⁻¹. It also gave a Kd [2] of 53 nM, a koff [2] of 0.0091 s⁻¹ and a kon [2] of 170000 M⁻¹ s⁻¹. For the same binder, the “IC50, DLL4-mediated reporter assay” value [3] was 1340 nM, the EC50 [4] was 13.8 nM and the EC50 [5] was 11.3 nM. The Kd [6] was 16 nM, the Kd [7] was 53 nM and the IC50 [8] was 107 nM. The IC50 [9] was 349 nM, the EC50 [10] was 13.8 nM and the EC50 [11] was 11.3 nM. It also gave an IC50 [12] of 7.5 nM, an IC50 [13] of 107 nM and an IC50 [14] of 349 nM. For the same binder, the IC50 [15] was 7.5 nM, the binding result [16] was “no binding (tested: log[M] -6.1 (about 8e-7 M))” and the binding result [17] was “no binding (tested: log[M] -6.1 (about 8e-7 M))”. For the same binder, the “EC50 (read off the curve)” value [18] was roughly 2 nM and the “EC50 (read off the curve)” value [19] was roughly 10 nM.

B2: VEGFBII023 (VHH)
chain: EVQLVESGGGLVQTGDSLRLSCEVSGRTFSSYSMGWFRQAQGKEREFVVAISKGGYKYDSVSLEGRFTISKDNAKNTVYLQINSLKPEDTAVYYCASSRAYGSSRLRLADTYEYWGQGTQVTVSSGGGGSGGGGSGGGGSGGGGSGGGGSGGGGSGGGGSGGGGSEVQLVESGGGLVQAGGSLRLSCAASGRTFSNYAMGWFRQAPGKERVLVADISSSGINTYVADAVKGRFTISRDNAKNTVYLQMNSLKPEDTAVYYCAASAWWYSQMARDNYRYWGQGTQVTVSS
notes: bivalent (heterodimeric) VHH; also called VEGFBII23B04-40GS-10E07
B2: no binding (tested: about 5e-7 M) [20]; no binding (tested: about 5e-7 M) [21]; no binding (tested: 5e-7 M) [22]. B2: no binding (tested: 5e-7 M) [23].

B3: VEGFBII022 (VHH)
chain: EVQLVESGGGLVQTGDSLRLSCEVSGRTFSSYSMGWFRQAQGKEREFVVAISKGGYKYDSVSLEGRFTISKDNAKNTVYLQINSLKPEDTAVYYCASSRAYGSSRLRLADTYEYWGQGTQVTVSSGGGGSGGGSEVQLVESGGGLVQPGGSLRLSCVASGIRFMSMAWYRQAPGKHRELVARISSGGTTAYVDSVKGRFTISRDNSKNTVYLQMNSLKAEDTAVYYCNTFSSRPNPWGAGTQVTVSS
notes: bivalent (heterodimeric) VHH; also called VEGFBII23B04-9GS-5B05
B3: no binding (tested: about 5e-7 M) [20]; no binding (tested: about 5e-7 M) [21]; no binding (tested: 5e-7 M) [22]. B3: no binding (tested: 5e-7 M) [23].
